From PMC3017119, “Structural Basis for the Recognition of Cellular mRNA Export Factor REF by Herpes Viral Proteins HSV-1 ICP27 and HVS ORF57” (PLoS Pathogens, 2011)

Assays:
[1] = tested on: GST-REF2-I; experiment: GST-REF2-I pull down of 35S-radiolabelled ICP27 fragments; format: binding, murine; details: 35S-radiolabelled protein from rabbit reticulocytes, glutathione beads, RB100 buffer pH 7.5, 10 µg/ml RNAse A; SDS-PAGE, PhosphoImage
Text: To confirm the position of REF-binding domains within ICP27 and ORF57 and to minimise the size of constructs for more detailed NMR mapping, a series of fragments derived from HSV-1 ICP27 were screened for binding to GST-REF2-I using pull down assays (Fig. 1). […] The REF-binding fragment of ORF57 aa 8–120 identified previously similarly interacted with the same fragments of REF (Fig. 1D).
Figure 1 Identification of regions for the interactions between REF and ICP27/ORF57. (A) Subdivision of ICP27, ORF57 and REF2-I in fragments. […] (C) Fusion of the ICP27^103–138 peptide to GST allows a specific pull down of REF, REF^1–155 (NM) and REF^54–155 (Δ53) and a very weak pull down of the REF^1–70 (N); no interaction is detected with the control Ras protein. (D) Same pull down assay as panel C but using GST fusion of ORF57 aa 8–120 in place of ICP27.
GST or GST protein fusions were first immobilised on 30 µl slurry glutathione-coated beads (GE Healthcare) before 8 µl ^35S-radiolabelled proteins synthesised in rabbit reticulocytes (Promega) were added to the binding reactions in RB100 buffer (25 mM HEPES pH 7.5/100 mM KOAc/10 mM MgCl2/1 mM DTT/0.05% Triton X-100/10% glycerol) in presence of 10 µg/ml RNAse A. Washed and eluted protein complexes were resolved on 15% SDS-PAGE stained with Coomassie blue and analysed by PhosphoImage. […]

[2] = tested on: REF^156–218 (REF2-I C-terminal domain); experiment: NMR 1H-15N correlation spectra of 15N-labelled REF^156–218 with added viral protein constructs; format: binding, murine; details: 2-fold excess of viral construct; 15N-HSQC

B1: ICP27^1–138: recombinant fragment aa 1–138 of HSV-1 ICP27 (protein)
chain: MATDIDMLIDLGLDLSDSDLDEDPPEPAESRRDDLESDSSGECSSSDEDMEDPHGEDGPEPILDAARPAVRPSRPEDPGVPSTQTPRPTERQGPNDPQPAPHSVWSRLGARRPSCSPEQHGGKVARLQPPPTKAQPAR
modifications: 35S-radiolabelled
notes: recombinant fragment aa 1–138 of HSV-1 ICP27
- Binding to GST-REF2-I in pull down [1]: essentially the same as that of the full-length protein
- Changes in 1H-15N correlation spectra of 15N-REF^156–218 upon addition [2]: No significant changes
